Reference: the DeepSol protein solubility set

Test: soluble on expression in E. coli; label from the status in PepcDB or PDB records

For “MSSAENIKESGKAKKQKNGNKNNNKKPSAEAIPLKNSPRNKLKKRGSMEQLSEQISEVFTIEMNNDQATVEEPTDTTVRINPADPSSPKVSTSEPKVTVPEPPPTHYAPVVVFIDHLSWPIFLHFVIVNRNMIITKVGRSFLTSLMPGDQISGVDSTPIWCIEDLEHEIQSKPARSVNLTVNRVWNIKCLTNIQLERILPQTDERLQYFMVHVYCSNGTGGLKLYSDKKRVLVQHIRAKTPICHALLVGDQILAINDEFLIGKPKKSLRRHAYDSIKKSFKTKGFAEIIACRPIGARSSPAPSVDAELSGKFANYACGVEKGNKLERKVTDETNNLPLEADALEIALRELTFLQQWVKQDFEEAPCEKGKSLLILKPPFENAKPYEYPPFVVNHQTQLVSAKALSSPVTNTPVAHSPPQALPNKTIIVPVGSTSSVLVPSTTSNALPPVLSLNSQSLSVKTLSMAPQVSQVEPPTSVMNGPTEAADLHVAVPPSPNTPRKRSIFKYKQEKGQTPEHQTTISFVEQPETSKITSDISEDEELKKCDPRSGIVAFIKNKFN”, which “soluble on expression in E. coli” value is on record?
Its value is “not soluble”.

For “MGSDKIHHHHHHMDEETRRAVATADEALPTSDALPDAIDTGRVVFGFDGYLDRVREVVADRIDPESHERLATLESFGDRIDRSVAADSSLSFEWLQQGSRTGGHTSHLARAFGGWSFDPVMVGMYGDPVHDAFETEFGEYELHSLGEPGVTDAVEFDDGKLMLTEIGDTMSLDWAELDTAFGHDRLAEKLDGASLLGTGYWSETPDLPTVFDGLRTLWDGIDDPPETVLVDPGDVRKLDADRLRAGREAIGRLDEVTDVVVTSNRAETGVLADAYAGDAERSFADDAEAVFEALEPTWFVGHGVEQSVVVTAAGTDSVAVPSVSDPELTTSSGDHFNAGLGLARIADLSPAAAVVVGNAVAGYFVRTADQPSLADVRAFVDEYLEKF”, which “soluble on expression in E. coli” value is on record?
Its value is “not soluble”.

Which “soluble on expression in E. coli” value does the source give for “MGSDKIHHHHHHMNPPKRLLVIHRALAPYRIELLNTLSAAFDTHIYFEFASPIEQRFDAGELAKRVHFQSSVLPPAPKIPGLKNFRPYAASLVRSLRPDVVLCSEFNLLTLTLTAASRLFSPKTKLYVLCDDNEQMAEAELHYGRGLKHRMLSYVEGVILCDSRACDLYASRFATLDRERFVYLPIVQDEKVLRPLYEQVFGIGRDLRHALIPAGARMILYVGRLSEEKNLPALIDNLSTLPDDVHLVIVGDGPMQSALMNQVQATGHPERIIFAGKKEGAELYAYYTQADCLVLPSMRECFGSVVNEALIAGVPVVCSDIAGASCLVTESNGRTFSPMLPNALSQACNDLLGSIAPFCGDSLRPSLMPFTFERAIAPVLSLLSR” here?
The value was “not soluble”.

With “CVIFPVEIDVSQTIIRDCQVDKQTRELVYINKIMNTQLTKPVLMMFNISGPIRSVTRKNNNLRDRIKSKVDEQFDQLERDYSDQMDGFHDSIKYFKDEHYSVSCQNGSVLKSKFAKILKSHDYTDKKSIEAYEKYCLPKLVDERNDYYVAVCVLKPGFENGSNQVLSFEYNPIGNKVIVPFAHEINDTGLYEYDVVAYVDSVQFDGEQFEEFVQSLILPSSFKNSEKVLYYNEASKNKSMIYKALEFTTESSWGKSEKYNWKIFCNGFIYDKKSKVLYVKLHNVTSALNKNVILNTIKA” as the sequence, how does the “soluble on expression in E. coli” value read?
The value was “soluble”.

For “MGSDKIHHHHHHMAHQPVGTGSSIEVSVNPGHSRTSGVISHMSDTLRVAIVGDSDLQGAHVAISKSEFSPAADATDYLVLKDKPATISISRPSSQRVVGITTGSTTLIDFPEGTGSPFGINDMVTLRVIDQPYFEAAIGFGTVTKVWNAANIGGHYSTRITVNADTSGIKTDYVSTNWAELRSSFKVSSLGIGVGGKTGALYFQQVQITGE”, which “soluble on expression in E. coli” value is on record?
Its value is “not soluble”.

With “MAHHHHHHMPAAVTVHPLVLLSIVDHVTRVGLQTQQQRSPQKQGSAPDAAAASLPAPVFLSTAGLLMGTTRASGPVVTSTCSAESGGRGITTTLCASFEFPLRLQSTDGVAVAVAPSGDATFLQNILRDKTDWPAAQKHREQLSAVMPEMDVVGCYVVCASSRWTSTRHPRGGDDRDGSQLSVGGAVKKAKGEAMAGADHIAAIANCVQQQLRSTSILPSTATGFVLLVVYDKEVTSAAGDTDTAAPNPPHSPAAARLPFDCLYVPATTASDASPTEEVTVGPSDMEWIALANETMMPAYHQSSTTTCSAAVKPGLLRRLCSAAYLTSEGPDSREPANTQTSRMASSQNCRAAEELVGSLRLIMRVLVEMTASTLSPTGTAPDDVELLRTVATCLRNVPVSHPSQPPGEPRAPSELPTEEMLSAILALEVQCALHMRSLSKAQQQLLSSSRSAMTAFHSKACSPKAANPPPPLPSAEGWSTHERDKRSGVNTAVPGHGWV” as the sequence, how does the “soluble on expression in E. coli” value read?
Its value is “not soluble”.

Which “soluble on expression in E. coli” value does the source give for “MSDESNPPKVILLVEDSKADSRLVQEVLKTSTIDHELIILRDGLAAMAFLQQQGEYENSPRPNLILLDLNLPKKDGREVLAEIKQNPDLKRIPVVVLTTSHNEDDVIASYELHVNCYLTKSRNLKDLFKMVQGIESFWLETVTLPAAPG” here?
The value was “soluble”.

Which “soluble on expression in E. coli” value does the source give for “GSDSLIRDLSGLSQKMVQTLLEQIRSNYDDYLTFSNTYTDEENETLINLEKTQSDLQKFMTQLDHLIKDDISNTQEIIKDVLEYLKKLDEIYGSLRNHSQLTEALSLGKRLSKSLHEMCGIEPLEEEICSGLIEQLYKLITASRRILESCADSNSPYIHHLRNDYQDLLQEFQISLKILTEKCLENPSSLQNLSLTLVSIIKTA” here?
The value was “soluble”.

Which “soluble on expression in E. coli” value does the source give for “MGSDKIHHHHHHMGKSFYRFRSTNNLLDGYSELEKQTIYFARPEQLNDPMEGYRDIYWRGDLIAWKNLFAHYVFCLERISSLLLISGEDNKIDADHIPVFGSTDDLPTDSYKNLFRKIKARFLENKYVSALILAISKRSTPIRREELAFYYDCMHIPALKLIFDVYIEENLSQEGNRIDDKAFAGISGVVSNDFVGLLEKSITDGEADQVIVNELFKAKSHIKQQSNLIHKHNGTISSSKPNKNLLMIDFPSLYLNRLEEITFPKWYTSCFMSECKNSSVWGHYGNNHTGMCLIFDSENINDRSYIKLNGITGWGSSGPIYGDKAMEFHPIDYKKGFGEIDFFTSIGSLPIPVLNTMWYMDEAGNTSVCANKMNVDEDAWRSNYWSNFIRGLTVKSKDWEYENEYRLILHSSITDLSEKDRRTLTYDFSSLKGIIFGINTKEEDKLKTIKIIEDKCNKHSRSDFKFYQAYYCADENCIKSVEMSLVKFSGNV” here?
The value was “not soluble”.

Which “soluble on expression in E. coli” value does the source give for “MAEEQARHVKNGLECIRALKAEPIGSLAIEEAMAAWSEISDNPGQERATCREEKAGSSGLSKPCLSAIGSTEGGAPRIRGQGPGESDDDAETLGIPPRNLQASSTGLQCYYVYDHSGEAVKGIQDADSIMVQSGLDGDSTLSGGDNESENSDVDIGEPDTEGYAITDRGSAPISMGFRASDVETAEGGEIHELLRLQSRGNNFPKLGKTLNVPPPPDPGRASTSGTPIKKGHRREISLIWNGDRVFIDRWCNPMCSKVTLGTIRARCTCGECPRVCEQCRTDTGVDTRIWYHNLPEIPE” here?
The value was “not soluble”.

Which “soluble on expression in E. coli” value does the source give for “GSSHHHHHHSSGLVPRGSHMGSIIDAAAAAGPVVLMETAFRKAVESRQIPGAVIMARDASGNLNYTRCFGARTVRRDENNQLPPLQVDTPCRLASATKLLTTIMVLQCMERGLVDLDETVDRLLPDLSAMPVLEGFDDAGNARLRERRGKITLRHLLTHTSGLSYVFLHPLLREYMAQGYLQSAEKFGIQSRLAPPAVNDPGAEWIYGTNLDWAGKLVERATGLDLEQYLQENICAPLGITDMTFKLQQRPDMLARRADQTHRNSADGRLRYDDSVYFRADGEECFGGQGVFSSPGSYMKVLHSLLKRDGLLLQPQTVDLMFQPALEPRLEEQMNQHMDASPHINYGGPMPMVLRRSFGLGGIIALEDLDGENWRRKGSLTFGGGPNIVWQIDPKAGLCTLAFFQLEPWNDPVCRDLTRTFEHAIYAQYQQG” here?
The value was “soluble”.

With “SLKAKILFVGPCESGKTVLANFLTESSDITEYNPTQGVRILEFENPHVTSNNKGTGCEFELWDCGGDSKFESCWPALMKDAHGVVIVFNADIPSHLKEIEMWYSCFVQQQFLQDSHCMLVAHHKPGSGGERGSLALSPPLNKLKLVHSNLEEDPEEVRVEFIKYLKSIINSMSESRDREEMLIIT” as the sequence, how does the “soluble on expression in E. coli” value read?
The value was “soluble”.

With “MGSDKIHHHHHHMNRQVIEFSKYNPSGNMTILVHSKHDASEYASIANQLMAATHVCCEQVGFIESTQNDDGNDFHLVMSGNEFCGNATMSYIHHLQESHLLKDQQFKVKVSGCSDLVQCAIHDCQYYEVQMPQAHRVVPTTINMGNHSWKALEIIYETYVHYVIPVKQVTTEIQHLVEAFVREQQWSHKYKTVGMMLFDEQRQFLQPLIYIPEIQSLIWENSCGSGTASIGVFNNYQRNDACKDFTVHQPGGSILVTSKRCHQLGYQTSIKGQVTTVATGKAYIE” as the sequence, how does the “soluble on expression in E. coli” value read?
The value was “not soluble”.

For “MGSDKIHHHHHHMIPFNKPHLTGKEVHYIYEAVHSGKISGNGIFTKKCHDFFTSTYGFTKTLMTSSCTDALEMSSLLMDIQPGDEIILPTFTFVSTANAFVLRGAKLVFVDSLATEPNMNVELIEGLITSKTKAIVVVHYAGVACDMDVVMNIAKKYQLFVVEDAAQAISSYYKDKPLGGIGDFGAFSFHETKNIISGEGGLLAINNSDYCNRSEIIWEKGTNRSAFFRGETDKYGWVDVGSSFLPSEIISAFLYAQLENVAEIQAKRLEIWNTYYNTLSPLAEHKKLRLPYIPAYATNNAHMFYVICNSLEERTALIDYLKAHNILAVFHYLSLHKSPYFSDKHDGRSMDYADQYAETLVRLPLFYDLSTEDQEFICTKILSFYSEKI”, which “soluble on expression in E. coli” value is on record?
The value was “not soluble”.

For “MLIAFEGIDGSGKTTQAKKLYEYLKQKGYFVSLYREPGGTKVGEVLREILLTEELDERTELLLFEASRSKLIEEKIIPDLKRDKVVILDRFVLSTIAYQGYGKGLDVEFIKNLNEFATRGVKPDITLLLDIPVDIALRRLKEKNRFENKEFLEKVRKGFLELAKEEENVVVIDASGEEEEVFKEILRALSGVLRV”, which “soluble on expression in E. coli” value is on record?
The value was “soluble”.

With “MLRSAVSALYRASRSFSETVPRLSATPLGKQEPQLSLSYTCKVCNSREGPKTFAKSSYEKGVVIVTCSGCHNHHIIADNIGWFEDFKGKNIEDHLKTRGEAVKRRDTIKNENGIFEIQK” as the sequence, how does the “soluble on expression in E. coli” value read?
Its value is “not soluble”.

For “MLLAFKAKIALAALAGFVTPLAVTPLVIDHGDAALDGQQAMVEIAPGAMDYRLPGEFTRDGRQIEAPRTKLQFDRPLSIMLHQVSAADYQRCVDDGACHPMPAATAVRADRPAVQVSWQDATTYADWLSRKTGAHYRLPTDAEWAFAAGSKFKDDGLALDSDDPSVRWIARYERESDRDNLSAALRSFGGFGANERGLLDLSGNVWEWTTTCFDRSAIDAAGRPQAQTANCGVRVAEGLHRAYVSDFIRDAKAGGCSAGLPPIHLGFRLVREPAAPLARLRGQLDRVVTAAGILEHHHHHH”, which “soluble on expression in E. coli” value is on record?
Its value is “not soluble”.

Which “soluble on expression in E. coli” value does the source give for “MSLDKRLFLDPDTAIERLQRLQQALEMGVSSLMALVTTDWRCYGYMERHINEIRTAVDKVELFLKEYLHFVKGAVANAACLPELILHNKMKRELQRVEDSHQILSQTSHDLNECSWSLNILAINKPQNKCDDLDRFVMVAKTVPDDAKQLTTTINTNAEALFRPGPGSLHLKNGPESIMNSTEYPHGGSQGQLLHPGDHKAQAHNKALPPGLSKEQAPDCSSSDGSERSWMDDYDYVHLQGKEEFERQQKELLEKENIMKQNKMQLEHHQLSQFQLLEQEITKPVENDISKWKPSQSLPTTNSGVSAQDRQLLCFYYDQCETHFISLLNAIDALFSCVSSAQPPRIFVAHSKFVILSAHKLVFIGDTLTRQVTAQDIRNKVMNSSNQLCEQLKTIVMATKMAALHYPSTTALQEMVHQVTDLSRNAQLFKRSLLEMATEGHHHHHH” here?
Its value is “soluble”.

For “MLRNKAFVVRLYPNAAQAERINRTLGCARFVYNHFLARRIESYRQDGKGMIYAATDKALTLLKREEGTAWLAEVDKFALQQSLRDLERAYQNFFRTAKKSGKKVGFPKFKKKRTGEAYRTQFTNNNIEIGEGKLKLPKLGWVKTRGQRDMQGKILNVTVRRIHEGHYEASVLCEVEIPYLPAAPKFAAGVDVGIKDFAIVTDGKGEFEHHANPKYYRSSLRRLRKAQKTLSRRKKGSARYGRAKTTLARIHKRVANKRQDFIHKLTTSLVREYEITCTEHLKPDNMRKNRRLALSVSDAGWGEFIRQLEYKATWYGRLVSKISPYFPSSQICHDCGFKNPAVKNLAVREWTCPNCGETHDRDENAALNIRREGLVAAGMSDTQNAHGDCIRPTSVGSGLRSENHATSVVLEHHHHHH”, which “soluble on expression in E. coli” value is on record?
Its value is “soluble”.
